Publication PMC4310740

Experiments:
[1] = target: Alexa 594-labeled N-WASP VCA (S430C) (UniProt O00401); experiment: fluorescence polarisation
[2] = target: G-actin (rabbit muscle actin monomers) (rabbit) (UniProt P68135); experiment: fluorescence polarisation

Sequence of Alexa 594-labeled N-WASP VCA (S430C) (O00401 whole entry S430C): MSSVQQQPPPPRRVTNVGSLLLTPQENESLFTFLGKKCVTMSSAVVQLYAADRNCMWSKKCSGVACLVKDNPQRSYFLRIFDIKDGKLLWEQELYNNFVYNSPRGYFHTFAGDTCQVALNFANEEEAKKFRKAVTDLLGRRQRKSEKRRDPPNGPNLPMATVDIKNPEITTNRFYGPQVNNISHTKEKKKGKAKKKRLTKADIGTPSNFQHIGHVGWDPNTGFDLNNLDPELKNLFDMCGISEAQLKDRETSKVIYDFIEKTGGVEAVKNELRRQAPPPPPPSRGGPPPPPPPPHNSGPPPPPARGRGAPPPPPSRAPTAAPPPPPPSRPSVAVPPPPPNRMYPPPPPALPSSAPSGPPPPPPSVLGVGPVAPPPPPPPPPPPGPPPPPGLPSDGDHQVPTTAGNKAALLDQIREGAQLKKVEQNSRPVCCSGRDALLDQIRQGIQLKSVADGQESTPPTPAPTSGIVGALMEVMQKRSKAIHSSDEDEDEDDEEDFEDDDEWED

| Kd [1] [nM] | fold reduction of affinity against wild-type WAVE1 GST-VCA [2] [fold] | Substance |
| --- | --- | --- |
| 106 |  | G-actin (rabbit muscle actin monomers) (from UniProt P68135 1-377) (natural protein) |
|  | < 2 | human WAVE1 GST-VCA K507Q (from UniProt Q92558 1-559) (domain or fragment) |
